{"source": "patent US20040024178A1", "about": "“Bacterial signal peptidase inhibitors and uses thereof” (priority 1999, published 2004)", "molecules": {"B1": {"name": "S. aureus SpsB signal peptidase (protein)", "chain": "MKKELLEWIISIAVAFVILFIVGKFIVTPYTIKGESMDPTLKDGERVAVNIIGYKTGGLEKGNVVVFHANKNDDYVKRVIGVPGDKVEYKNDTLYVNGKKQDEPYLNYNLKHKQGDYITGTFQVKDLPNANPKSNVIPKGKYLVLGDNREVSKDSRAFGLIDEDQIVGKVSFRFWPFSEFKHNFNPENTKN"}}, "key": {"[1]": {"molecular_target": "T1, S. aureus SpsB signal peptidase (Staphylococcus aureus) (UniProt P0A070)", "T1 sequence": "B1 chain", "experiment": "cell-based or functional assay"}, "[2]": {"molecular_target": "T2, Decanoyl-Leu-Thr-Pro-Lys(Bio-X)-Ala-Lys-Ala-Ala-Ser-Lys-Ile-Asp-Asp-Gly-Lys(Flu)-Asp-OH", "T2 chain": "LTPKAKAASKIDDGKD"}, "[3]": {"molecular_target": "T3, Decanoyl-Leu-Thr-Pro-Lys(Bio-X)-Ala-Lys-Ala-Ala-Ser-Lys-Lys(Flu)-Asp-Asp-OH", "T3 chain": "LTPKAKAASKKDD"}, "[4]": {"molecular_target": "T4, Decanoyl-Lys(Bio-X)-Thr-Pro-Thr-Ala-Lys-Ala-Ala-Ser-Lys-Ile-Asp-Asp-Gly-Lys(Flu)-Asp-OH", "T4 chain": "KTPTAKAASKIDDGKD"}, "[5]": {"molecular_target": "T5, Decanoyl-Lys(Flu)-Thr-Pro-Thr-Ala-Lys-Ala-Ala-Ser-Lys-Lys(Bio-X)-Asp-Asp-OH", "T5 chain": "KTPTAKAASKKDD"}, "[6]": {"molecular_target": "T6, Decanoyl-Lys(Flu)-Thr-Pro-Thr-Ala-Lys-Ala-Ala-Ser-Lys-Lys(TAMRA)-Asp-Asp-OH, prep-hplc peak 23C", "T6 chain": "KTPTAKAASKKDD"}, "[7]": {"molecular_target": "T7, Decanoyl-Lys(TAMRA)-Thr-Pro-Thr-Ala-Lys-Ala-Ala-Ser-Lys-Lys(Flu)-Asp-Asp-OH, prep-hplc peak 24C", "T7 chain": "KTPTAKAASKKDD"}, "[8]": {"molecular_target": "T8, Decanoyl-Lys(TAMRA)-Thr-Pro-Thr-Ala-Lys-Ala-Ala-Ser-Lys-Lys(Flu)-Asp-Asp-OH, prep-hplc peak 24D", "T8 chain": "KTPTAKAASKKDD"}}, "data": [{"molecule": "Decanoyl-Leu-Thr-Pro-Lys(Bio-X)-Ala-Lys-Ala-Ala-Ser-Lys-Lys(Flu)-Asp-Asp-OH (peptide)", "values": [{"measurement": "signal change (fluorescence polarisation assay, developed with avidin)", "setting": "[1]", "value": "> 150", "unit": "mP"}]}, {"molecule": "Decanoyl-Lys(Flu)-Thr-Pro-Thr-Ala-Lys-Ala-Ala-Ser-Lys-Lys(Bio-X)-Asp-Asp-OH (peptide)", "values": [{"measurement": "signal change (fluorescence polarisation assay, developed with avidin)", "setting": "[1]", "value": "> 150", "unit": "mP"}]}, {"molecule": "Decanoyl-Lys(Bio-X)-Thr-Pro-Thr-Ala-Lys-Ala-Ala-Ser-Lys-Ile-Asp-Asp-Gly-Lys(Flu)-Asp-OH (peptide)", "values": [{"measurement": "signal change (fluorescence polarisation assay, developed with avidin)", "setting": "[1]", "value": "> 150", "unit": "mP"}]}, {"molecule": "Decanoyl-Lys(TAMRA)-Thr-Pro-Thr-Ala-Lys-Ala-Ala-Ser-Lys-Lys(Flu)-Asp-Asp-OH, prep-hplc peak 24D (peptide)", "values": [{"measurement": "signal change (fluorescence quench assay)", "setting": "[1]", "value": "> 10", "unit": "fold"}]}, {"molecule": "Decanoyl-Lys(TAMRA)-Thr-Pro-Thr-Ala-Lys-Ala-Ala-Ser-Lys-Lys(Flu)-Asp-Asp-OH, prep-hplc peak 24C (peptide)", "values": [{"measurement": "signal change (fluorescence quench assay)", "setting": "[1]", "value": "> 10", "unit": "fold"}]}, {"molecule": "Decanoyl-Leu-Thr-Pro-Lys(Bio-X)-Ala-Lys-Ala-Ala-Ser-Lys-Ile-Asp-Asp-Gly-Lys(Flu)-Asp-OH (peptide)", "values": [{"measurement": "signal change (fluorescence polarisation assay, developed with avidin)", "setting": "[1]", "value": "> 150", "unit": "mP"}]}, {"molecule": "B1", "values": [{"measurement": "catalytic efficiency kcat/Km (fluorescence polarisation assay)", "setting": "[2]", "value": "kcat/Km >/=8000 M^-1 sec^-1"}, {"measurement": "catalytic efficiency kcat/Km (fluorescence polarisation assay)", "setting": "[3]", "value": "kcat/Km >/=8000 M^-1 sec^-1"}, {"measurement": "kcat/Km (fluorescence correlation spectroscopy assay)", "setting": "[3]", "value": "kcat/Km=6800 M^-1s^-1"}, {"measurement": "catalytic efficiency kcat/Km (fluorescence polarisation assay)", "setting": "[4]", "value": "kcat/Km >/=8000 M^-1 sec^-1"}, {"measurement": "catalytic efficiency kcat/Km (fluorescence polarisation assay)", "setting": "[5]", "value": "kcat/Km >/=8000 M^-1 sec^-1"}, {"measurement": "catalytic efficiency kcat/Km (fluorescence quench assay)", "setting": "[6]", "value": "kcat/Km >/=5000 M^-1 sec^-1"}, {"measurement": "catalytic efficiency kcat/Km (fluorescence quench assay)", "setting": "[7]", "value": "kcat/Km >/=5000 M^-1 sec^-1"}, {"measurement": "catalytic efficiency kcat/Km (fluorescence quench assay)", "setting": "[8]", "value": "kcat/Km >/=5000 M^-1 sec^-1"}]}]}
